According to patent US10358638B2, “Method of producing 1,5-pentadiamine using lysine decarboxylase mutant having improved thermal stability” (AJINOMOTO CO., INC., priority 2014, dated 2019):

What was measured:
[1] = Remaining lysine decarboxylase activity of cell free extract after incubation at 68° C.; type: biochemical, Escherichia coli
Experimental: (§1) The activity of the lysine decarboxylase was measured according to the method described in JP patent application laid-open Publication No. 2008-193899. 0.1 mL of a microbial cell suspension or a treated product thereof was added to 1 mL of a reaction solution containing 100 mM MES-NaOH buffer (pH 6.0), 10 g/L (55 mM) of L-lysine hydrochloride and 26.5 mg/L (0.1 mM) of PLP, and then the reaction mixture was incubated at 37° C. for 5 minutes. 0.1 mL of the reaction solution was collected and added to 1 mL of 1% (v/v) phosphoric acid to stop the reaction. Lysine and 1,5-PD were quantified with HPLC by a post column OPA method (S. R. Vale and M. B. Gloria, Journal Of AOAC International (1997) vol. 80, p. 1006-1012) or a method of quantifying remaining L-lysine using a biosensor BF-5 (Oji Scientific Instruments Co., Ltd.). One unit was defined as an activity that formed 1 μmol of 1,5-PD in one minute under this condition.
A combination mutant for increasing the amount of expressed CadA was constructed using QuikChange™ Site-Directed Mutagenesis Kit (Stratagene). A mutation to alter from Val (GTT) to Ile ([…]) at position 3 was introduced using the plasmid pCadA233 as the template and using oligonucleotides v3i_r (5′-cat gtg att caa tat tgc aat aat gtt cat cta cat tcc tcc tta cg-3′(SEQ ID NO:11)) and v3i_f (5′-cgt aag gag gaa tgt aga tga aca tta ttg caa tat tga atc aca tg-3′ (SEQ ID NO:12)) as primers according to a protocol. The nucleotide sequence of the constructed plasmid was determined by the method described in Example 2 to confirm that the objective mutation had been introduced, and this plasmid was designated as pCadA234. Microbial cells of E. coli JM109/pCadA234 expressing this double mutant CadA234 at high level were cultured to prepare a cell free extract in the same manner as in Example 2. The activity in this cell free extract was 663 U/mL, which was almost the same as that from the strain expressing the wild-type enzyme.
The resulting cell free extract was diluted to 20 fold with 0.1 M MES-NaOH buffer (pH 6.0). Each crude enzyme solution was incubated at 68° C., which is a higher temperature than in Example 2, and the remaining activity was measured over time. After incubation at 68° C. for one hour, the wild-type enzyme was inactivated to 27% while the single mutant enzymes V3I and A590T were inactivated to 47% and 27%, respectively. On the contrary, the double mutant enzyme retained 70% of its activity, and even after 3 hours, still retained about 60% of its activity (FIG. 1). Therefore, it was shown that the double mutation has a synergistic effect and further improved the thermal stability.

[2] = Enzyme activity of culture media of expressing strains after heat treatment with or without disruption; type: cell-based, Escherichia coli
Experimental: as §1
Microbial cells of E. coli JM109/pCadA220 and E. coli JM109/pCadA234 carrying the wild-type CadA and the double mutant CadA, respectively were cultured in the LB medium. Subsequently, 15 mL of the cultured medium was inoculated into 300 mL of culture medium (25 g/L of glucose, 5 g/L of ammonium sulfate, 2 g/L of potassium phosphate, 1 g/L of magnesium sulfate heptahydrate, 20 mg/L of iron sulfate heptahydrate, 20 mg/L of manganese sulfate pentahydrate, 1 mg/L of thiamine hydrochloride, 0.45 g/L of hydrolyzed soybeans, pH 7.0) in a 500 mL jar fermenter (manufactured by ABLE & Biott Co., Ltd.), and cultured with ventilation at 300 mL/minute while stirring at 250 rpm at 30° C. for 12 hours. Culture media containing 10.1 g/L and 10.9 g/L of microbial cells in terms of dry microbial cell weight were able to be prepared for E. coli JM109/pCadA220 and E. coli JM109/pCadA234, respectively. For the purpose of improving substrate permeability, the pH value was adjusted to 5.5, and subsequently the culture media were incubated at 55° C. and 60° C., and then the culture media were directly used to measure the activity after the incubation.
Since the lysine decarboxylase is expressed within the microbial cell, when the microbial cell is used directly, lysine cannot react with the lysine decarboxylase, and the efficiency of a decarboxylation reaction is very poor. […] However, the wild-type enzyme was inactivated during the incubation when heated excessively. The mutated enzyme having the improved thermal stability could stably keep its activity even when using conditions where the wild-type enzyme was easily inactivated as shown in Example 2. When the microbial cells carrying such a mutated enzyme were used, efficient treatment in a short period of time was possible. This has shown that the mutated enzyme not only can act at higher temperature upon reaction but also can be easily used when the microbial cell is directly used.

[3] = Inhibition of enzyme activity by iron ion and effect of chelating agent EDTA; type: biochemical, Escherichia coli
Experimental: as §1
Cell free extracts were prepared from the strain expressing wild-type CadA and the strain overexpressing double mutant CadA, respectively in the same manner as in Examples 2 and 3. Using the resulting cell free extract, iron sulfate heptahydrate (Nacalai Tesque Inc.) at a final concentration of […] (2 mM) was added to the composition shown in Example 1, and an inhibitory effect was measured. […]

[4] = Lysine decarboxylation reaction (1,5-PD production) in the presence of chelating agent; parameters: species or system Escherichia coli; settings: 0.1 mM iron sulfate, 0.3 mM EDTA added, 37° C., 16 hours
Experimental: In the same manner as in Example 4, microbial cells of E. coli JM109/pCadA234 (double mutant expressing CadA at high level) were cultured, the cultured medium was prepared, and after completing the cultivation, incubated at 60° C. for one hour. The activity after incubation was measured, and the cultured medium was diluted so that the enzyme activity became 380 units/mL. 30 mL of this cultured medium containing the enzyme was added to 270 mL of a reaction solution containing 250 g/L of lysine hydrochloride (Ajinomoto Co., Ltd.), 26.5 mg/L of pyridoxal phosphate, 27.8 mg/L (0.1 mM) of iron sulfate heptahydrate and 111.6 mg/L (0.3 mM) of disodium dihydrogen ethylenediaminetetraacetate (EDTA), and the mixture was reacted at 37° C. for 16 hours. No EDTA was added in a control reaction. The pH value was 5.3 when the reaction was started, and elevated with progress of the reaction, but was kept at 7.0 by adding 30% (v/v) sulfuric acid when the pH value reached 7.0.
On the other hand, when EDTA was added, the inhibition of the reaction is restored and lysine was completely consumed. When EDTA was added, 135 g/L of 1,5-PD was formed and lysine was converted at a yield of 98%. […]

[5] = Incubation at 55° C. for 1 h, Disruption
[6] = Incubation at 55° C. for 1 h, physical treatment None
[7] = Incubation at 55° C. for 3 h, Disruption
[8] = Incubation at 55° C. for 3 h, physical treatment None
[9] = Incubation at 60° C. for 1 h, Disruption
[10] = Incubation at 60° C. for 1 h, physical treatment None
[11] = No heat treatment, physical treatment None

B1: pCadA234: lysine decarboxylase (CadA) V3I/A590T double mutant (protein, UniProt P0A9H3 1-715, looked up, variant V3I A590T)
Inducible lysine decarboxylase: MNIIAILNHMGVYFKEEPIRELHRALERLNFQIVYPNDRDDLLKLIENNARLCGVIFDWDKYNLELCEEISKMNENLPLYAFANTYSTLDVSLNDLRLQISFFEYALGAAEDIANKIKQTTDEYINTILPPLTKALFKYVREGKYTFCTPGHMGGTAFQKSPVGSLFYDFFGPNTMKSDISISVSELGSLLDHSGPHKEAEQYIARVFNADRSYMVTNGTSTANKIVGMYSAPAGSTILIDRNCHKSLTHLMMMSDVTPIYFRPTRNAYGILGGIPQSEFQHATIAKRVKETPNATWPVHAVITNSTYDGLLYNTDFIKKTLDVKSIHFDSAWVPYTNFSPIYEGKCGMSGGRVEGKVIYETQSTHKLLAAFSQASMIHVKGDVNEETFNEAYMMHTTTSPHYGIVASTETAAAMMKGNAGKRLINGSIERAIKFRKEIKRLRTESDGWFFDVWQPDHIDTTECWPLRSDSTWHGFKNIDNEHMYLDPIKVTLLTPGMEKDGTMSDFGIPASIVAKYLDEHGIVVEKTGPYNLLFLFSIGIDKTKALSLLRALTDFKRAFDLNLRVKNMLPSLYREDPEFYENMRIQELTQNIHKLIVHHNLPDLMYRAFEVLPTMVMTPYAAFQKELHGMTEEVYLDEMVGRINANMILPYPPGVPLVMPGEMITEESRPVLEFLQMLCEIGAHYPGFETDIHGAYRQADGRYTVKVLKEESKK
Question: For B1, which “remaining activity after incubation at 68° C. for one hour” value ([1]; 68° C., 1 hour, FIG. 1) is on record?
Answer: Its value is 70%.

Question: What about the “remaining activity after incubation at 68° C. for 3 hours” value ([1]; 68° C., 3 hours, FIG. 1) of the same molecule?
Answer: The value was “about 60%”.

Question: What about the “activity in cell free extract” value ([1]; before incubation) of the same molecule?
Answer: The value was 663 U/mL.

Question: What about the Enzyme activity [2, 5] of the same molecule?
Answer: The Enzyme activity was 758 units/ml.

Question: What about the Relative activity [2, 5] of the same molecule?
Answer: The Relative activity was 98.4%.

Question: What about the Enzyme activity [2, 6] of the same molecule?
Answer: The Enzyme activity was 475 units/ml.

Question: What about the Relative activity [2, 6] of the same molecule?
Answer: The Relative activity was 61.7%.

Question: What about the Enzyme activity [2, 7] of the same molecule?
Answer: Its Enzyme activity is 659 units/ml.

Question: What about the Relative activity [2, 7] of the same molecule?
Answer: The Relative activity was 85.5%.

Question: What about the Enzyme activity [2, 8] of the same molecule?
Answer: Its Enzyme activity is 601 units/ml.

Question: What about the Relative activity [2, 8] of the same molecule?
Answer: The Relative activity was 78.0%.

Question: What about the Enzyme activity [2, 9] of the same molecule?
Answer: The Enzyme activity was 754 units/ml.

Question: And the Relative activity [2, 9]?
Answer: Its Relative activity is 97.9%.

Question: What about the Enzyme activity [2, 10] of the same molecule?
Answer: The Enzyme activity was 426 units/ml.

Question: And the Relative activity [2, 10]?
Answer: Its Relative activity is 55.3%.

Question: What about the Enzyme activity ([2]; No heat treatment, Disruption) of the same molecule?
Answer: The Enzyme activity was 770 units/ml.

Question: And the Relative activity ([2]; No heat treatment, Disruption)?
Answer: Its Relative activity is 100%.

Question: What about the Enzyme activity [2, 11] of the same molecule?
Answer: Its Enzyme activity is 16.0 units/ml.

Question: And the Relative activity [2, 11]?
Answer: The Relative activity was 2.1%.

Question: And the “activity with 2 mM iron ion, of the activity when no iron ion was added” value ([3]; 2 mM iron ion, no EDTA)?
Answer: The value was 64.7%.

Question: What about the Enzyme activity ([3]; FeSO4 2 mM, EDTA 0.5 mM) of the same molecule?
Answer: Its Enzyme activity is 677 units/ml.

Question: What about the Enzyme activity ([3]; FeSO4 2 mM, EDTA 1 mM) of the same molecule?
Answer: Its Enzyme activity is 680 units/ml.

Question: And the Enzyme activity ([3]; FeSO4 2 mM, EDTA 2 mM)?
Answer: The Enzyme activity was 677 units/ml.

Question: And the Enzyme activity ([3]; FeSO4 2 mM, EDTA 4 mM)?
Answer: Its Enzyme activity is 672 units/ml.

Question: And the Enzyme activity ([3]; FeSO4 2 mM, EDTA 5 mM)?
Answer: Its Enzyme activity is 669 units/ml.

Question: What about the Enzyme activity ([3]; FeSO4 2 mM, EDTA None) of the same molecule?
Answer: Its Enzyme activity is 443 units/ml.

Question: And the Enzyme activity ([3]; FeSO4 None, EDTA 2 mM)?
Answer: The Enzyme activity was 677 units/ml.

Question: And the Enzyme activity ([3]; FeSO4 None, EDTA None)?
Answer: The Enzyme activity was 685 units/ml.

Question: And the “yield of lysine conversion” value [4]?
Answer: The value was 98%.
